Experiment [1] deals with chimpanzee CD40 expressed on peripheral blood B cells (chimpanzee) (UniProt K7BNQ5). As to the kind of experiment: cell-based or functional assay.
Another experiment addresses T1, human CD40 (human, UniProt P25942 21-193, limits assumed).
T1 construct: CD40 as used in the BIACore assay; also called CD40 antigen
The experiment is described as follows: BIACore assay.

For experiment [2], the target named is chimpanzee CD40 expressed on peripheral blood B cells (chimpanzee, UniProt K7BNQ5 21-277). As to the kind of experiment: cell-based or functional assay.
chimpanzee CD40 expressed on peripheral blood B cells, sequence (K7BNQ5 entry or part of it limits assumed): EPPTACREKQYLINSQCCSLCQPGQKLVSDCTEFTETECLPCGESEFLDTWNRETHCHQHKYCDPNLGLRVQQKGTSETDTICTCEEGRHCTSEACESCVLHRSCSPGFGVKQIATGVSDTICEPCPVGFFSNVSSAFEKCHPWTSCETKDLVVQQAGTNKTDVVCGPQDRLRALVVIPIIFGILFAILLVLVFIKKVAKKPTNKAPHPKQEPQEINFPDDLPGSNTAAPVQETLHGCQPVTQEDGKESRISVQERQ

The results in this text go back to patent US20040109857A1 (Novartis, published 2004).

For orientation: Kd means the equilibrium constant for the complex coming apart. A low value points to tighter binding.

T1 sequence (P25942 21-193 limits assumed): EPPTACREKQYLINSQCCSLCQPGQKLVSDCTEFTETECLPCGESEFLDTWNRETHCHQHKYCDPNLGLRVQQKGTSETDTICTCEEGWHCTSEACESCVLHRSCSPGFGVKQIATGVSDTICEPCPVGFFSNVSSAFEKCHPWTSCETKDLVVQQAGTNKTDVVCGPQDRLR
chimpanzee CD40 expressed on peripheral blood B cells (chimpanzee), sequence (K7BNQ5 entry or part of it limits assumed): as the sequence (K7BNQ5 entry or part of it limits assumed) above

In the case of “human CD40L expressed on transfected cells (CHO cells; murine L-cells) (from UniProt P29965 1-261) (ligand)”, in experiment [1], the CD40L fold increase of proliferation over huIgG2 at 5 ug/ml; chimp PBMC, 1 sample was determined as 10.2 fold.

B1: 15B8, fully human anti-CD40 monoclonal antibody (antibody, human IgG2, V domains shown)
VH: QVQLQESGGGVVQPGRSLRLSCAASGFTFNNFGIHWVRQAPGKGLEWVAVISYDGSDKYYADSVKGRFTISRDNSKNTLNLQMNSLRAEDTAVYYCARDRRYYYHYYGMDVWGQGTMVTVSS
VL: DIVMTQSPLSLSVAPGQPASISCKSSQSLLESYGETYLYWYLQKPGQPPQLLIYAVFKRFSGVPDRFSGSGSGTDFTLKISRVEAEDVGVYYCMQSMQLPLTFGGGTKVEIK
notes: Human IgG2 isotype with human kappa light chain, from hybridoma 15B8 (Xenomouse); two heavy and two light chains, 1,284 residues in all; In one FACS format it was directly FITC-labelled; also called antagonist anti-CD40 antibody 15B8; 15B8 MAb
Regarding B1, in the experiment with human CD40, the Kd was found to be 3.1 nM. In addition, the “15B8 fold increase of proliferation over huIgG2; chimp PBMC, 1 sample, 15B8 5 ug/ml” value in experiment [2] turned out to be 2.46 fold.
